By Kd is commonly meant the free concentration of one partner at which half of the binding sites on the other are occupied at equilibrium, for simple one-to-one binding.

The assay concerns the target T1, integrin α5β1 on cells (human (endogenous in K562 and MCF10A), UniProt P08648 42-1049; P05556 21-798).
T1 construct: integrin α5 subunit, endogenous; integrin β1 subunit, endogenous; also called intact α5β1; cellular α5β1; source: endogenous, on K562 cells (flow cytometry) and on MCF10A Cas-mScarlet cells (TIRF microscopy)
Put plainly: flow cytometry on cells; competition: unlabelled competitor titrated against 5 nM CF647-NeoNectin on K562 cells, L15 medium with 1% BSA, 2 h at room temperature; KD = EC50/(1 + CL/KD,L). The following applies: one partner purified.

T1 sequence (P08648 42-1049, chain 1 of 2): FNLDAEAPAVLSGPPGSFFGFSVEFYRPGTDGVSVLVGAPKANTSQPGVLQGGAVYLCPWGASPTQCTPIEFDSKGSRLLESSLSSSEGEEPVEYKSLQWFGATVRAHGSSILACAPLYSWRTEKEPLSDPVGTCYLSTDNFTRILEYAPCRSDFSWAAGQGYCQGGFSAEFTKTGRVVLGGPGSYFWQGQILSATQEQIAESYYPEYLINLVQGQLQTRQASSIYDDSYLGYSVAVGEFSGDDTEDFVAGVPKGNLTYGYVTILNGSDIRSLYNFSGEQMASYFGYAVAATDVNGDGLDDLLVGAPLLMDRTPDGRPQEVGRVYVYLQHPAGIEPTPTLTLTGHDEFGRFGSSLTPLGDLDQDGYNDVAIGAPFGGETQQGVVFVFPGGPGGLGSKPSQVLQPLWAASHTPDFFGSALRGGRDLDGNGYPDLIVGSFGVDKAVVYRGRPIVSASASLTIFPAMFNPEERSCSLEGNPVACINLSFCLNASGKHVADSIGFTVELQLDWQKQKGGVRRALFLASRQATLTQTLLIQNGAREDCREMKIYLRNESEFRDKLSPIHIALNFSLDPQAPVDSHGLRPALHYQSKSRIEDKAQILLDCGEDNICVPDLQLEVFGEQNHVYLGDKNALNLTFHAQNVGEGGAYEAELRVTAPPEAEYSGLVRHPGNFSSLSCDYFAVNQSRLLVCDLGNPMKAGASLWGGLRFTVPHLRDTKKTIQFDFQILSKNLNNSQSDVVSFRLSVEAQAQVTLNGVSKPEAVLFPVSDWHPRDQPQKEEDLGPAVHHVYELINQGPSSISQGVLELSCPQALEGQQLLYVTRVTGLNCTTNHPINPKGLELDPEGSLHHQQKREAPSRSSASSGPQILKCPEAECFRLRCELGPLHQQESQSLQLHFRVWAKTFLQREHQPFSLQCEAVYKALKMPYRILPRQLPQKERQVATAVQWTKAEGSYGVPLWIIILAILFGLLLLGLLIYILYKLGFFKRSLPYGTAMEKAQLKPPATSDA
T1 sequence (P05556 21-798, chain 2 of 2): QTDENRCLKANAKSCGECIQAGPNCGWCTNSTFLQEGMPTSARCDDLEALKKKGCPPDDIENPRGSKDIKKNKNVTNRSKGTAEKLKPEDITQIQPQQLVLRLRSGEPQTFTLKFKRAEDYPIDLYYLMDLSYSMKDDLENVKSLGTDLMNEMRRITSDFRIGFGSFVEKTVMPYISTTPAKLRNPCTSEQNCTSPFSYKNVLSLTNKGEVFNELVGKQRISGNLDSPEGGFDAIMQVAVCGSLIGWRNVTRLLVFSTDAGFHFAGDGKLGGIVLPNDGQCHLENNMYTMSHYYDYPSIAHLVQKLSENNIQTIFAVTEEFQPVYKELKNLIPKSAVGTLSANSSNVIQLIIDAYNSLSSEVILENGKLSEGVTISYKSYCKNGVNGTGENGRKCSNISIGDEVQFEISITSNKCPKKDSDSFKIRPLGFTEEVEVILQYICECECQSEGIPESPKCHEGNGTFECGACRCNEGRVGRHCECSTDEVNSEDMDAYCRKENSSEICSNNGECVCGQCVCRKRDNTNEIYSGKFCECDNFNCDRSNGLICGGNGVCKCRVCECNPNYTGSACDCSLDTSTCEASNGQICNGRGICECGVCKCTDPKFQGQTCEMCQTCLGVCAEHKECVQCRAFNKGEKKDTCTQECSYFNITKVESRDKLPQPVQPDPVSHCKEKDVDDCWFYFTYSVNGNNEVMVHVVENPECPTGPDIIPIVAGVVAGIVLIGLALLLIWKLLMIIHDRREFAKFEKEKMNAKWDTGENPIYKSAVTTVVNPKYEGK

In the case of GRRGDGATGH (source: synthetic peptide) [RGD peptide (GRRGDGATGH)], the Kd was determined as 150 µM.

(Values after PMC12392869 (Advanced Materials (Deerfield Beach, Fla.), 2025).)
